Results taken from PMC10338669.

Biological target: aSyn-MFP (alpha-synuclein with C-terminal MFP/mMaroon1, single-fusion acceptor) (UniProt P37840)
Test: FRET or BRET

O-aSyn (alpha-synuclein with N-terminal OFP/mCyRFP1, single-fusion donor) (from UniProt P37840 1-140) (natural protein)
FRET efficiency E (Ex 473 nm): 0.266 | FRET efficiency E (Ex 532 nm): 0.229
